In patent US20070134215A1:

Molecular target: BMP-2
Assay: cell-based or functional assay

appearance of beating EBs (myocardial differentiation-inducing effect of Noggin protein at 150 ng/mL on ES cells, floating culture): > 5 ng/mL
Substance: Recombinant Mouse Noggin/Fc Chimera protein (R&D Systems) (from UniProt P97466 28-232) (Fc fusion)
